Assay results taken from PMC6435160, “Initiation-specific alleles of the Cdc45 helicase-activating protein” (PLoS ONE, 2019).

Tests used:
[1] = biological target: T1, Mcm2-7 replicative DNA helicase, loaded on origin DNA and phosphorylated by DDK (S. cerevisiae, UniProt P29469 1-868; P24279 1-971; P30665 1-933; P29496 1-775; P53091 1-1017; P38132 …); test: pull-down; CMG formation assay: Mcm2-7 loaded on bead-attached origin DNA (pUC19-ARS1) and treated with DDK; S-CDK, Sld2, Dpb11, Pol ε, GINS, Mcm10, Sld3/7 and 50 nM Cdc45 added, no Pol α-primase; 30 min at 25°C; beads washed with buffer H + 0.3 M KCl, 0.02% NP-40 (salt-stable complexes); proteins released with DNase and detected by immunoblot; amounts relative to wild type; conditions: both partners purified
T1 construct: Mcm2 subunit of Mcm2-7, S. cerevisiae; Mcm3 subunit of Mcm2-7, S. cerevisiae; Mcm4 subunit of Mcm2-7, S. cerevisiae; Mcm5 subunit of Mcm2-7, S. cerevisiae; Mcm6 subunit of Mcm2-7, S. cerevisiae; Mcm7 subunit of Mcm2-7, S. cerevisiae; In the assays the complex was loaded on origin DNA and treated with DDK; also called Mcm2-7 complex; loaded Mcm2-7; source: Mcm2-7/Cdt1 purified as previously …

[2] = biological target: T1, Mcm2-7 replicative DNA helicase, loaded …; test: pull-down; reconstituted DNA replication assay: Mcm2-7 loaded on bead-attached origin DNA (pARS1-Nco) and treated with DDK; S-CDK, Sld2, Dpb11, Pol α-primase, Pol ε, RPA, GINS, Mcm10, Sld3/7 and 130 nM Cdc45 added; 1 h at 25°C; beads washed with buffer H + 0.3 M K-Glut, 0.02% NP-40; proteins released with DNase and detected by immunoblot; amounts relative to wild type; conditions: both partners purified

| Binder | stable CMG complexes, percent of wild-type Cdc45 [1] | percent of wild-type Cdc45 association [2] | binding result [2] |
| --- | --- | --- | --- |
| Cdc45-124 (DAH->AAA) (natural protein, S. cerevisiae, UniProt Q08032 1-650, looked up, Cdc45, Saccharomyces cerevisiae, clustered alanine mutant; mutants are numbered by the position of the first mutated amino acid; also called Cdc45-ts) MYYGISQFSEAYNKILRNSSSHSSCQLVIFVSCLNIDALCATKMLSLLFKKQLVQSQIVPIFGYSELRRHYSQLDDNINSLLLVGFGGVIDLEAFLEIDPQEYVIDTDEKSGEQSFRRDIYVLAAARPWNLDNIFGSQIIQCFDDGTVDDTLGEQKEAYYKLLELDEESGDDELSGDENDNNGGDDEATDADEVTDEDEEDEDETISNKRGNSSIGPNDLSKRKQRKKQIHEYEGVLEEYYSQGTTVVNSISAQIYSLLSAIGETNLSNLWLNILGTTSLDIAYAQVYNRLYPLLQDEVKRLTPSSRNSVKTPDTLTLNIQPDYYLFLLRHSSLYDSFYYSNYVNAKLSLWNENGKKRLHKMFARMGIPLSTAQETWLYMDHSIKRELGIIFDKNLDRYGLQDIIRDGFVRTLGYRGSISASEFVEALTALLEVGNSTDKDSVKINNDNNDDTDGEEEEDNSAQKLTNLRKRWVSNFWLSWDALDDRKVELLNRGIQLAQDLQRAIFNTGVAILEKKLIKHLRIYRLCVLQDGPDLDLYRNPLTLLRLGNWLIECCAESEDKQLLPMVLASIDENTDTYLVAGLTPRYPRGLDTIHTKKPILNNFSMAFQQITAETDAKVRIDNFESSIIEIRREDLSPFLEKLTLSGLL | 67 % of wild-type Cdc45 |  |  |
| Cdc45-238 (EEY->AAA) (natural protein, S. cerevisiae, UniProt Q08032 1-650, looked up, Cdc45, Saccharomyces cerevisiae, clustered alanine mutant; mutants are numbered by the position of the first mutated amino acid; also called Cdc45-ts) MYYGISQFSEAYNKILRNSSSHSSCQLVIFVSCLNIDALCATKMLSLLFKKQLVQSQIVPIFGYSELRRHYSQLDDNINSLLLVGFGGVIDLEAFLEIDPQEYVIDTDEKSGEQSFRRDIYVLDAHRPWNLDNIFGSQIIQCFDDGTVDDTLGEQKEAYYKLLELDEESGDDELSGDENDNNGGDDEATDADEVTDEDEEDEDETISNKRGNSSIGPNDLSKRKQRKKQIHEYEGVLAAAYSQGTTVVNSISAQIYSLLSAIGETNLSNLWLNILGTTSLDIAYAQVYNRLYPLLQDEVKRLTPSSRNSVKTPDTLTLNIQPDYYLFLLRHSSLYDSFYYSNYVNAKLSLWNENGKKRLHKMFARMGIPLSTAQETWLYMDHSIKRELGIIFDKNLDRYGLQDIIRDGFVRTLGYRGSISASEFVEALTALLEVGNSTDKDSVKINNDNNDDTDGEEEEDNSAQKLTNLRKRWVSNFWLSWDALDDRKVELLNRGIQLAQDLQRAIFNTGVAILEKKLIKHLRIYRLCVLQDGPDLDLYRNPLTLLRLGNWLIECCAESEDKQLLPMVLASIDENTDTYLVAGLTPRYPRGLDTIHTKKPILNNFSMAFQQITAETDAKVRIDNFESSIIEIRREDLSPFLEKLTLSGLL | 55 % of wild-type Cdc45 | 20 % of wild-type Cdc45 association |  |
| Cdc45-485 (DDRK->AAAA) (natural protein, S. cerevisiae, UniProt Q08032 1-650, looked up, Cdc45, Saccharomyces cerevisiae, clustered alanine mutant; mutants are numbered by the position of the first mutated amino acid; also called Cdc45-ts) MYYGISQFSEAYNKILRNSSSHSSCQLVIFVSCLNIDALCATKMLSLLFKKQLVQSQIVPIFGYSELRRHYSQLDDNINSLLLVGFGGVIDLEAFLEIDPQEYVIDTDEKSGEQSFRRDIYVLDAHRPWNLDNIFGSQIIQCFDDGTVDDTLGEQKEAYYKLLELDEESGDDELSGDENDNNGGDDEATDADEVTDEDEEDEDETISNKRGNSSIGPNDLSKRKQRKKQIHEYEGVLEEYYSQGTTVVNSISAQIYSLLSAIGETNLSNLWLNILGTTSLDIAYAQVYNRLYPLLQDEVKRLTPSSRNSVKTPDTLTLNIQPDYYLFLLRHSSLYDSFYYSNYVNAKLSLWNENGKKRLHKMFARMGIPLSTAQETWLYMDHSIKRELGIIFDKNLDRYGLQDIIRDGFVRTLGYRGSISASEFVEALTALLEVGNSTDKDSVKINNDNNDDTDGEEEEDNSAQKLTNLRKRWVSNFWLSWDALAAAAVELLNRGIQLAQDLQRAIFNTGVAILEKKLIKHLRIYRLCVLQDGPDLDLYRNPLTLLRLGNWLIECCAESEDKQLLPMVLASIDENTDTYLVAGLTPRYPRGLDTIHTKKPILNNFSMAFQQITAETDAKVRIDNFESSIIEIRREDLSPFLEKLTLSGLL | 43 % of wild-type Cdc45 | 27 % of wild-type Cdc45 association |  |
| GINS complex (Sld5, Psf1, Psf2, Psf3) (complex, S. cerevisiae, Sld5 subunit of GINS, S. cerevisiae; Psf1 subunit of GINS, S. cerevisiae; Psf2 subunit of GINS, S. cerevisiae; expressed as Psf2-3C-6xHis-Flag, tag removed with HRV 3C protease; Psf3 subunit of GINS, S. cerevisiae; not shown: 6xHis, C-terminal, cleaved; Flag, C-terminal, cleaved; copies: + + +) chain 1: MDINIDDILAELDKETTAVDSTKITQGSSSTTHRDANTIVGSSLDLNDKTQIYVSPQQDFSDLMKSWKNERCSPELLPYPHQLMKRLLNRISMQSQLIENISMGFLDMQNASNANPPMPNESKLPLLCMETELERLKFVIRSYIRCRLSKIDKFSLYLRQLNEDENSLISLTDLLSKDEIKYHDTHSLIWLKLVNDSILKYMPEELQAINDTEGSVNMIDEPDWNKFVFIHVNGPPDGKWNEDPLLQENEFGKPCYTVTIPDLKEEVELTIGSIYVMRYEVIRDLLRDDKVALI chain 2: MYGDLGNKLVLEAKRTKQLYARSNQDVNLPMYHEDIIRNILKEVSNLRKNTEYLKEQQQLGMLDDKVAKCQYFVTLLCMERNKRCLLAYQRLRTDILDSMAWNNNGLDLMSSITFSQQDTNNLSHQEQEYLKEYCDLITDLKSGDLVDIDLSGSLVPPSDVFIDVRVLKDAGEIQTEYGVFNLIKDSQFFVRQSDVERLIQQGYLQKI chain 3: MSLPAHLQQTFSPEEIQFIVENEPIKIFPRITTRQKIRGDDRGTGNHTRWQLITTDDKALNNMVAMRSTEVVLWIALLLKQQSKCSIVAPQWLTTKELDRKIQYEKTHPDRFSELPWNWLVLARILFNKAKDDFHDPIHELRGKIQDLREIRQIKVLKGLKYLNESHLQLDNLSLLEINELRPFITEIMDKLREIHTASLTAGTENDEEEFNI chain 4: MGYYDIDDVLADGTEFPCKFQYDIPGLGYLENNPGRPITKNTKLSLPLWLARILAIVGGDEALVDEEPVPFVELLPPDMFSTKVMNAIKTDPVALDLHSINSHFFSLAIKWIMLFSEKELANVVSELLLQRAQELNHHASSLSIDLNADSTGKNSANTNIATSTFLLKLEEMEKEIYKKSHESYKDTKRWMFKK |  |  | binds |
